This note sets out measurements from patent publication US20210269525A1 (BIOCYTOGEN PHARMACEUTICALS BEIJING, published 2021).

Assay [1] has as its target T1, human CD3e (T-cell surface glycoprotein CD3 epsilon chain) (human, UniProt P07766 23-207). In words: cell-based or functional assay.
The target in assay [2] is T2, Cynomolgus CD3 epsilon Protein, His Tag (Acrobiosystems, Cat #CDE-05226) (cynomolgus (Macaca fascicularis), UniProt Q95LI5 22-117).
T2 construct: also called monkey CD3e; not shown: His tag
T2 sequence: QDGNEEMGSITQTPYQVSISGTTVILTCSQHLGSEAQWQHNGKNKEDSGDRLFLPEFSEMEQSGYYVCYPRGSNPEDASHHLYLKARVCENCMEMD
Put plainly: SPR (Biacore), cynomolgus CD3e His tag. The procedure:
The binding affinity of the anti-hCD3e antibodies with monkey CD3e (Cynomolgus CD3 epsilon Protein (SEQ ID NO: 39 AA Gln 22-Asp 117), His Tag, Acrobiosystems, Cat #CDE-05226) were also measured using surface plasmon resonance (SPR) using Biacore (Biacore, INC, Piscataway N.J.) by the methods as described in the examples.

Assay [3] addresses T3, Histidine-tagged human CD3e protein (human, UniProt P07766 23-126).
T3 construct: also called hCD3e-His; not shown: His tag
Put plainly: SPR (Biacore), human CD3e; same numbers as Table 7.

In assay [4] the target is T3, Histidine-tagged human CD3e protein. In words: SPR, Biacore T200, antibody on Protein A chip, hCD3e-His injected. Here is the method:
(§1) The binding affinity of the anti-hCD3e antibodies were measured using surface plasmon resonance (SPR) using Biacore (Biacore, INC, Piscataway N.J.) T200 biosensor equipped with pre-immobilized Protein A sensor chips (Protein A (Lot:10260138)-5).
Anti-hCD3e antibodies were collected from CHO-S cells. The antibodies (1:20) were injected into Biacore T200 biosensor at 10 μL/min for 35 seconds to achieve to a desired protein density. Histidine-tagged human CD3e proteins (hCD3e-His) with different concentrations (100 nM 0.390625 nM) were then injected to the system at 30 μL/min for 150 seconds. Dissociation was monitored for 600 seconds. The chip was regenerated after the last injection of each titration with Glycine (pH 2.0, 30 μL/min for 5 seconds).

For assay [5], the target named is T4, Histidine-tagged rCD3e protein (rhesus macaque, Macaca mulatta) (rhesus macaque (Macaca mulatta), UniProt Q95LI5 22-117 (cynomolgus entry), limits assumed).
T4 construct: also called rCD3e-His; rmCD3e; not shown: His tag
T4 chain: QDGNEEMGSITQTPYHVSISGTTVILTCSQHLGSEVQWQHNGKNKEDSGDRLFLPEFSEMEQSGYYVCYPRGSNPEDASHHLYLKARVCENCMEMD
Put plainly: SPR, Biacore T200, antibody on Protein A chip, rCD3e-His injected. The procedure: as §1
Experiments were also performed to test the binding affinities with rCD3e (rhesus macaque, or Macaca mulatta). Anti-hCD3e antibodies (1:20) were injected into Biacore T200 biosensor at 10 μL/min for 30 seconds to achieve to a desired protein density. Histidine-tagged rCD3e proteins (rCD3e-His) with different concentrations (100 nM 0.390625 nM) were then injected to the system at 30 μL/min for 150 seconds. Dissociation was monitored for 450 seconds. The chip was regenerated after the last injection of each titration with Glycine (pH 2.0, 30 μL/min for 12 seconds).

Assay [6] has as its target T1, human CD3e (T-cell surface glycoprotein …). Put plainly: cell-based or functional assay. The source holds these as a separate data set.
Assay [7] concerns the target T3, Histidine-tagged human CD3e protein. In words: SPR (Biacore), human CD3e.
Assay [8] concerns the target T1, human CD3e (T-cell surface glycoprotein …). In words: flow cytometry, human PBMC, antibody 1 µg/mL, anti-human IgG Fc-Alexa Fluor647 (1:500), anti-hTcRβ-PerCP (1:30).
The target is the same in assay [9]. In words: flow cytometry, human PBMC, antibody 10 µg/mL, anti-human IgG Fc-Alexa Fluor647 (1:500), anti-hTcRβ-PerCP (1:30).
Assay [10] has the same target. Put plainly: flow cytometry, human PBMC, antibody 0.1 µg/mL, anti-human IgG Fc-Alexa Fluor647 (1:500), anti-hTcRβ-PerCP (1:30).
The target in assay [11] is T5, monkey CD3e (Macaca fascicularis) on PBMC (Macaca fascicularis, UniProt Q95LI5 22-198).
T5 construct: Target on PBMC from Macaca fascicularis; also called mfCD3e; monkey PBMC
Put plainly: flow cytometry, Macaca fascicularis PBMC, antibody concentration not given, anti-human IgG Fc-Alexa Fluor647 (1:500), anti-hTcRβ-PerCP (1:30). The essentials: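 Cynomolgus PBMC incubated with anti-hCD3 antibodies 15 min at 4° C, washed in PBS. Bound antibody detected with anti-human IgG Fc-Alexa Fluor647 (1:500) plus anti-hTcRβ-PerCP (1:30), 15 min at 4° C, then washed and analysed by flow cytometry.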

In assay [12] the target is T1, human CD3e (T-cell surface glycoprotein …). Put plainly: cell-based or functional assay. This is another data set of the same source.
The target in assay [13] is T3, Histidine-tagged human CD3e protein. Put plainly: SPR (Biacore), human CD3e; same numbers as Table 7. This is another data set of the same source.

Read-outs that look alike come from different tables or passages of the source. Some results are limits rather than exact numbers.

T5 sequence (Q95LI5 22-198 limits assumed): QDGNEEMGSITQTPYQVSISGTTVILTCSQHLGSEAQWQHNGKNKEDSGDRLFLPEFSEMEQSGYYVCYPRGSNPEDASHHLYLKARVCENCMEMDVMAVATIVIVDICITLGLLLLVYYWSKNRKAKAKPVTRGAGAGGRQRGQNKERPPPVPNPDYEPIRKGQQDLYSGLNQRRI

B1: 30-1B1 (antibody, V domains shown)
VH: QVQLQQPGSELVRPGASVKLSCKASGYTFTSYWMHWVKQRHGQGLEWIGNIYPDSGTTNYGEKFKTKGTLTVDTSSSTAYMHLSSLTSEDSAVYYCTRDTSGQYYFDYWGQGTTLTVSS
VL: DIVMSQSPSSLAVSAGEKVTMSCKSSQSLLNSRTRKNYLAWYQHKPGQSPKLLIYWASTRESGVPDRFTGSGSGTDFTLTISSVQAEDLAVYYCVQSFSLRAFGGGTKLEIK
As for B1, the “EC50, luciferase of Jurkat-Luc-NFAT cells with CHO-FcγRIIB cells” value in assay [1] amounted to 2.98 µg/mL.

B2: C3E-30-1B1-mHvKv-IgG1-LALA (antibody, V domains shown)
VH: QVQLQQPGSELVRPGASVKLSCKASGYTFTSYWMHWVKQRHGQGLEWIGNIYPDSGTTNYGEKFKTKGTLTVDTSSSTAYMHLSSLTSEDSAVYYCTRDTSGQYYFDYWGQGTTLTVSS
VL: DIVMSQSPSSLAVSAGEKVTMSCKSSQSLLNSRTRKNYLAWYQHKPGQSPKLLIYWASTRESGVPDRFTGSGSGTDFTLTISSVQAEDLAVYYCVQSFSLRAFGGGTKLEIK
notes: Chimeric
Turning to B2, the Kd turned out to be 4.54 nM in assay [2], 0.988 nM in assay [3], 0.988 nM in [4] and 0.752 nM in assay [5]. Further, the koff came out at 0.00049 s⁻¹ in assay [2], 0.000509 s⁻¹ in assay [3], 0.000509 s⁻¹ in assay [4] and 0.00039 s⁻¹ in assay [5]. For the same molecule, the kon in assay [2] was 108000 M⁻¹ s⁻¹; in [3], 516000 M⁻¹ s⁻¹; in assay [4] it was 516000 M⁻¹ s⁻¹; in assay [5], 518000 M⁻¹ s⁻¹.

B3: 1B1-H1K2-IgG1-LALA (antibody, V domains shown)
VH: QVQLVQSGAEVKKPGASVKVSCKASGYTFTSYWMHWVRQAPGQGLEWIGNIYPDSGTTNYGEKFKTRVTLTVDTSTSTAYMELSSLRSEDTAVYYCTRDTSGQYYFDYWGQGTLVTVSS
VL: DIVMTQSPDSLAVSAGERVTMNCKSSQSLLNSRTRKNYLAWYQHKPGQSPKLLIYWASTRESGVPDRFSGSGSGTDFTLTISSLQAEDVAVYYCVQSFSLRAFGGGTKVEIK
notes: Humanized; human IgG1 with LALA mutations; also called H1K2 (humanized 1B1)
B3: the “EC50, luciferase of Jurkat-Luc-NFAT cells; antibody from supernatant” value in [6] is more than 3.08 µg/mL. The Kd came to 1.2 nM in [7] and 7.59 nM in [2]. In addition, the koff in assay [7] is 0.000669 s⁻¹; in [2] it was 0.00072 s⁻¹. Also, the kon worked out at 558000 M⁻¹ s⁻¹ in [7] and 94900 M⁻¹ s⁻¹ in [2]. The “upper left quadrant, percent of cells AF647+ / hTcRβ-PerCP-” value in assay [8] stood at 9.83%; in [9], 9.94%; in assay [10], 11.6%; in [11] it was 80.5%. The “upper right quadrant, percent of cells AF647+ / hTcRβ-PerCP+” value worked out at 62.4% in assay [8], 63.5% in assay [9], 58.1% in assay [10] and 14.9% in assay [11].

B4: 1B1-H2K3-IgG1-LALA (antibody, V domains shown)
VH: QVQLVQSGAEVKKPGASVKLSCKASGYTFTSYWMHWVRQAPGQGLEWIGNIYPDSGTTNYGEKFKTRVTLTVDTSTSTAYMELSSLRSEDTAVYYCTRDTSGQYYFDYWGQGTLVTVSS
VL: DIVMTQSPDSLAVSAGERVTMNCKSSQSLLNSRTRKNYLAWYQHKPGQSPKLLIYWASTRESGVPDRFSGSGSGTDFTLTISSVQAEDVAVYYCVQSFSLRAFGGGTKLEIK
notes: Humanized; human IgG1 with LALA mutations; also called H2K3 (humanized 1B1)
Consider B4, for which, in [6], the “EC50, luciferase of Jurkat-Luc-NFAT cells; antibody from supernatant” value is more than 16.7 µg/mL. For the same molecule, the Kd in [7] came out at 1.01 nM; in [2] it was 5.39 nM. Moreover, the koff in assay [7] turned out to be 0.000651 s⁻¹; in assay [2], 0.000591 s⁻¹. In addition, the kon in [7] is 644000 M⁻¹ s⁻¹; in assay [2], 110000 M⁻¹ s⁻¹. Moreover, the “upper left quadrant, percent of cells AF647+ / hTcRβ-PerCP-” value in assay [8] turned out to be 10.4%; in assay [9], 10.9%; in [10] it was 10.8%; in [11] it was 88.3%. The “upper right quadrant, percent of cells AF647+ / hTcRβ-PerCP+” value in assay [8] is 60.6%; in assay [9] it was 61.2%; in assay [10] it was 59.1%; in [11], 8.61%.

B5: Teplizumab (antibody, V domains shown)
VH: QVQLVQSGGGVVQPGRSLRLSCKASGYTFTRYTMHWVRQAPGKGLEWIGYINPSRGYTNYNQKVKDRFTISRDNSKNTAFLQMDSLRPEDTGVYFCARYYDDHYCLDYWGQGTPVTVSS
VL: DIQMTQSPSSLSASVGDRVTITCSASSSVSYMNWYQQTPGKAPKRWIYDTSKLASGVPSRFSGSGSGTDYTFTISSLQPEDIATYYCQQWSSNPFTFGQGTKLQITR
Consider B5, for which the “EC50, luciferase of Jurkat-Luc-NFAT cells; purified antibody” value was found to be 0.149 µg/mL in [12] and 0.449 µg/mL in [6].

B6: 25-10A4 (antibody, V domains shown)
VH: QVQLQQSGPELVKPGASVRISCKASGYTFTSYYIHWVKQRPGQGLEFIGWIYPGNVNAKYNEKFKGKATLTTDKSSTTAYMQLSSLTSEDSAVYFCAIKGGNYDWGQGTLVTVSA
VL: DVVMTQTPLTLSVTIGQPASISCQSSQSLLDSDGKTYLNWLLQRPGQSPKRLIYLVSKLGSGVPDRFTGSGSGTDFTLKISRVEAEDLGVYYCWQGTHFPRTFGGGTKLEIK
Consider B6, for which, in assay [1], the “EC50, luciferase of Jurkat-Luc-NFAT cells with CHO-FcγRIIB cells” value worked out at 0.421 µg/mL.

B7: C3E-25-10A4-mHvKv-IgG1-LALA (antibody, V domains shown)
VH: QVQLQQSGPELVKPGASVRISCKASGYTFTSYYIHWVKQRPGQGLEFIGWIYPGNVNAKYNEKFKGKATLTTDKSSTTAYMQLSSLTSEDSAVYFCAIKGGNYDWGQGTLVTVSA
VL: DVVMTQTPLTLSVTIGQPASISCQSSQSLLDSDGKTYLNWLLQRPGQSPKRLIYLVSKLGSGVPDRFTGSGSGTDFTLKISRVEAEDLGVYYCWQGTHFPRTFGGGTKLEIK
notes: Chimeric
In the case of B7, the Kd in assay [2] was determined as 9.05 nM; in assay [13], 5.37 nM; in assay [4] it was 5.37 nM; in assay [5], 2.05 nM. Besides, the koff in assay [2] was determined as 0.000453 s⁻¹; in assay [13], 0.000384 s⁻¹; in [4], 0.000384 s⁻¹; in assay [5], 0.000251 s⁻¹. Moreover, the kon stood at 50000 M⁻¹ s⁻¹ in [2], 71500 M⁻¹ s⁻¹ in [13], 71500 M⁻¹ s⁻¹ in assay [4] and 123000 M⁻¹ s⁻¹ in [5].
